Laboratory results from the supplement of paper PMC12636428.

System: Saccharomyces cerevisiae
Assay: transcriptional activation domain activity (GFP:mCherry ratio, weighted mean of sorted bins, harmonized to initial dataset scale) (arbitrary fluorescence ratio units); higher = stronger transcriptional activation
Settings: beta-estradiol 1 µM; induction time 4 h
In short: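 Sorting into 8 bins by GFP:mCherry ratio followed a 4-hour hold at 30 °C after cultures were diluted 1:5 into SC with 1 uM beta-estradiol. The yeast diploids carried a GFP reporter and had barcoded protein tiles, fused to an estradiol-inducible synthetic transcription factor, integrated at URA3. Barcodes were then sequenced, and tiles with under 50 reads were removed. Activation activity is the read-weighted mean of bin median fluorescence, averaged across barcodes and linearly mapped onto the initial dataset scale.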

Sequence | transcriptional activation domain activity
LALCQLKFWAIFSSIKHVNGLLKHSYPFDRSNFNVLVKSLIRGMFYKFQERQD | 40100
LALFGMKMVEAIMTMIHMDFRYCDFLGILPLLIFLIPCHYFYTLLKIKALLTY | 60600
LALIRGGSHVGQVTFDRHSIASEGVVWCLAVKFKGVTLNLSWSEAVYRWFHVL | 57300
LALLTPGPSHVDPEYGTFQSLLFFFGLCTFLTTLTGIASSYIFWLYCSVLLLA | 52100
LALNDISRSVVAAGRVDGAVHITGVRDAVVAVAARQVRVHECRNVDLYLRCAS | 44800
LALQRMDWHSVFRKTFYESRSWLHLLTNFSRIWIMHISAFWYYMAANIDFFYR | 56400
LALQTMYFIPDIPQQALVDFWPRIWPWVQFFDIYGDIIRLCPPLQLYWVFFAY | 25500
LALVIDVRFPKHPTMSNYSLVCAVRALLDFVELARYPVHTDATLRLLNDALRV | 51200
LAMQGFFRTFGLLCINFDSAFRLATFFLPNMIQYTGYLIPTFQMKRWLFWISY | 43200
LANGLVVVLHTEAYDLPDNFASNCWFVIYYTNNSYLRFSSIYRYIFSIVIIVL | 45800
LANISLFTSFHQTDINWCGPTRLRWFGYCFCGMFVYYWLPGYFFQILTFFSWA | 73700
LAPFLAWLLSLLLQFFVFFLCYNYCTCFFTCLFTCLFCPFRWLQLLLYSIITT | 44000
LAQAFFASMPVVCFLTFGLFVLFALVAGFLFFTLFWVGLAFCVLVPVLVVTFC | 49000
LAQDPAGEQKKRRGRPPRYNVKLEPGEGDGAVTAPVKARKRKRESETPLSAPP | 33600
LARFACLTCDHNWLEDLIFGATDAIEEAFFANDITCLVFWLYNTTLWLHLMQC | 51400
LARVLTDFPMIFVMCTVFCIILYFMSGFAMEASKFWIFYLFVYVTTFCITALY | 46200
LARVYIRVFVLRVFRLDDYFIVVAMLCSILACSIFLWVVHLGMGKHFFALPPE | 63900
LASISSLQSSQSLDQNFSIPQSPPLSSMSFNFLTGNINETNQNHSNHQHSKSG | 22700
LASIVMFRTFHEGSTWTGLTRTRMFWYVFLFSFFWYWVPGYIMPILSFFSILC | 69200
LASLTPLISRRTPATTHARPHSTTQIPHRHHSAEMAEEQKPVVVADAPAAPAV | 27800
LASRNPPTATSPCTRTPAPAPAPRTASTTRASTPCTASTAPRAATSAACSPAA | 53100

Sequence | transcriptional activation domain activity
LATTDLTHRQNGEEPIQNEIAKLFHSGGDSVVDILFSQTSATEFVTVGGTGNV | 64400
LAYLVMQGFFRTFGLMCFNFDSAFRLAVFFIPNFVEYTGYILPVISMQRWLFW | 63100
LCAEEYRWHWRAFLTGGGSAFWLLAYGLFFWASRLSLHSMSSAILYLGYLFLL | 77800
LCAPIEVFRNICLPFVRLLHPLFFLSLLVFVEIIFPLFIPLTLLHCFLVLFGV | 55100
LCASSLIWMTVSRHHLPPTIANLPATTLLILTFISLLLSIFLQFLFWALLFFW | 65300
LCDNVTTQWREWMFPHNETLPALGQDGINEDNLNETIDNMLIFDFLDDGSENN | 109000
LCFVFVLNIQAVLAVLWVIATKWIVIGRRRDGQYAWDSSSYCQRWQLHLVLSR | 71600
LCIDDKYILIYGQEDSNHKVTVRKVTLQLFMCLINYTVRNILWWSLSGLITGF | 38400
LCIGIVLIAAFIAYEYLMVSGRVLARHLPHQKSMLPWELITNKDLGLLFYVNF | 44400
LCILVYLSHVSYLTLLPRFDYLYNIIFNMVIGLSHNALWLVYSLPISAFRRFP | 75800
LCKAIQFCVFLGFALAGYNFEPWHQLIVYETLCFVLFLSRVLLTIQYAVVLVY | 61400
LCLERLFPPLMREIFCELGIASQVFQRIVFTAIYRRICGTGPHLAHLEAKALE | 30100
LCLLHRWKEFNQPEDVKCAVEYLRHLRGLPLDTFEVSHKVVTILLVQVLGIQV | 48900
LCLPFFLSLLPFFQSWRYVNISLLLFFYSSSIFSPSFPFIYYFTVFFLSFLLL | 29900
LCLRLMIKVAFSGEDTEVDFSMLQVAVRYILGIHGVNTLAPAWTFWGKCLDSM | 37000
LCMELVLHYIYVVAISNSSPDWSAYTPFQLSMLGYFNLHHIWLKLLIPWRFFR | 63800
LCNVLRLYFYLLYFIFYRNLFARLRDVEQFAMIQIASSVWVTILYPMRMTRPV | 72900
LCPLFPPCFLVLHHILGFLYPRFFLFVFSLVDCLLYFSLSFLVCVRFCLCLGL | 78000
LCREVIIGGILGGILVFLVISLFFLIGHFFLFFVVLFLLLFNTTLCSLLVEVL | 18900
LCRLWGAWGLFTFGLGVLLSAINMRMVLFYRVFITVNLTARSNSKIVNFFRKF | 51100
LCRVQESILQTFGMTGLLCMQRGINFTIYCVLTCTVLHLVAITSPDPDLNRDA | 40200

Sequence | transcriptional activation domain activity
LCSWLIPRVLVLLGRKGCEKLMENIKALFDLFFQIIPQYPNFWCWESILLDYL | 41800
LCTQLLVKILVFSAYRFSLTVLNLVSYLTIDARMVSIVVLGKSLFPLLVFVLL | 41000
LCVDVWDGFFLSPLNLVAISFLIFLPFHCWVINAPLSILCLTSIMGFPSFLFF | 70200
LCVFDLLVLTTTAFIQSGVYCAFDWTVSTIEVRGVCVLAVLIATIPIVFIAYA | 31400
LCYQRMLLRVLLSFCDWIIKLESASQASKLGESMILARRSVDLLVIAIINVGT | 40700
LDAVSSFNSSSVKSNFASKVNTQLNLLQHSSSNSNFLDASPYDFNKIFMNNFE | 62000
LDDLKLQPIINRYRNCKGLSPSDLRLSLDQLKCLNHQFSVIILRILFKHCPLY | 72900
LDFLDLWTFWPWTFWPWTFWTVGLFGLLALDLLALDFLDLWTFWPWTFWPWTF | 60400
LDGSVDTSAPLDTGLFNSWMDIFQAFPFPAEGFTPDSFNDNYPIDPNQTFLTI | 141000
LDHRVGIEKLYVSLFFLSTALLIIIEQYFPSLKSRGVLNFLWKLLYLPLLRLV | 43000
LDIGHWMSSYNLLRRQSTKRYMIIMDLTRRFNTRTPNLLYLIQWGFVWGVSYY | 57900
LDKKSGRLIKHSLCFTYKDLELLTRFFKEDHVIHPTIKAYVLAACTVLFHLLL | 62500
LDKVADPDYHPAVENSDVEEVMAAWRKTVREEALGVVEAGGGNVPGRGRVEVK | 48000
LDLEHLFGIDIEQRFQSYVMTQQAWLMPYLARIYYSHISLGVCFLVYIYTFLP | 44100
LDRTVEAFRHADALRDVHLYGMVFSYFKMPLWQLTRFSGDIIGLNEYLLLFYN | 38000
LDSYPNVLTFAVYTYLRLIPEHRHIQLATLQQREIRFVVSMLRQKWNLCAVIG | 30100
LECVRFAIMTHTVDLLQKVLWSQVDHILSRLPSIRTVKFRFFMDSSLWKKAAI | 41900
LEDNAAPASAPAAEEKPVEKAPEEKPEKKEEPQKEEPKKEDAKQAAPKSGASQ | 46100
LEEAEDGGGALADGEIEVRVAATGVTVDDARAAAGLRAGYTVGTECSGTVARV | 11500
LEEIHILERLYYKSKNQHHASLFWRKLTEIRRVTTRLLKFNVTETVASIPLAF | 59200
LEEYYWKTLNFTTPMYGADTPGSIFPEGLNVWNVAKLPNILDHMETKVPGVND | 88300

Sequence | transcriptional activation domain activity
LEGGRVIQRGRHNVATDVVGCFYDAFCTLLPQMIIVRVTRGKAWDSRVIYPTE | 66400
LEGPPLEKTGSDILQQVCNVLPSFEQSSKIITDFFNTELETNEVSEVLDKTKI | 49900
LEHVVLLLYCISAVVLQTRYGSVPIGWIEERPITIGFTMAFSGALRDCLMYAA | 56400
LELNWAIGGGDLKHRMNKLREFLEEGRRVEVLLGPKKRGRKATPEEAQGVVKA | 34200
LELPDNLDNADFSKLLEFDAKNDEALFNSNELLSHTMDPVNNIDLTHDHSREV | 93000
LELQHFLLSFAHFPLLVWVFSWVLVFGFNWFLSIYGVLELFFLFCSHCWIAWS | 63900
LEMLSYGAGVHHAINILFTDGIFWVWYYDRQGILQSKGVSIFKDLPRFLLLLF | 52200
LENTNNNGSNVNAATNDTSASTNNINNNNAICQSASLLNDPLETLDFTKCIFA | 46900
LEQHPKDRVKFSTPELVPLDLKNPELDSSFDLNMNLDLNLNLDSNFNIALNRS | 97100
LESTHSLLALLNFIAFLCDGRFRTIADRLLNVRLIPSRRLVKRDVSYEFMNRQ | 46300
LETGSFQNYYQKMDAENADRVYSKGVKLIASGTLPSGIFNREELFEEDSFYKY | 68400
LEVTQRGITPANTDYNSNPIDKCLVSDSFNESTTNLLRSLLHCLRILALTYHA | 36600
LFALAMLLLFCFIGLLVSGLHFGHRVYSDDCLGQSWIMFSSILGFLYIGLHVQ | 32600
LFASMIPSMRDLIVIVLTLPNHATVIELQHYALEIAEQLTRFWFLRAENPLYR | 62600
LFATLLKLRVDQLLIMMDPTDLIRSILLSNENHQVLSALDFCWTLMHSVFPLL | 78100
LFCALMPIRFYTYFKQSFQYYLADLCYYVNLLLLIFLWVLPTSCSLFISVFSL | 78400
LFCFLHYNLLPLPLLLYHLLLAHHILLQLNLDPFLPLLPLLPFLPLLFLLCHL | 36000
LFCLPDTAACGAMHAWRSWATSFLLFSFFAAICGQFFSLLFSYLLLFLCYWVI | 42900
LFEIDQRLGLLVPRNGINTSLVILKVIAKLLEKASIYNHFTLGIVWLRKSILV | 49900
LFFHILFPFFFFFQFLFSLFFFSFFFHSFFFLYFLFFPGGFFFQFCCFFFPSF | 44800
